Measured values published in patent publication US20250179155A1 (VANDERBILT UNIVERSITY, published 2025).
Numbering of substitutions follows the chain as printed.

Tests used:
[1] = target: T1, TcdA-GTD (TcdA1-542) (Clostridioides difficile strain VPI10463, UniProt P16154 1-542); assay: ELISA-like screen of clone lysates on isolated domains
T1 construct: range 1-542; also called TcdA glucosyltransferase domain

[2] = target: full-length TcdA (TcdA1-2710) (Clostridioides difficile strain VPI10463, UniProt P16154 1-2710); assay: cell-based or functional assay
Sequence of full-length TcdA (TcdA1-2710) (P16154 whole entry): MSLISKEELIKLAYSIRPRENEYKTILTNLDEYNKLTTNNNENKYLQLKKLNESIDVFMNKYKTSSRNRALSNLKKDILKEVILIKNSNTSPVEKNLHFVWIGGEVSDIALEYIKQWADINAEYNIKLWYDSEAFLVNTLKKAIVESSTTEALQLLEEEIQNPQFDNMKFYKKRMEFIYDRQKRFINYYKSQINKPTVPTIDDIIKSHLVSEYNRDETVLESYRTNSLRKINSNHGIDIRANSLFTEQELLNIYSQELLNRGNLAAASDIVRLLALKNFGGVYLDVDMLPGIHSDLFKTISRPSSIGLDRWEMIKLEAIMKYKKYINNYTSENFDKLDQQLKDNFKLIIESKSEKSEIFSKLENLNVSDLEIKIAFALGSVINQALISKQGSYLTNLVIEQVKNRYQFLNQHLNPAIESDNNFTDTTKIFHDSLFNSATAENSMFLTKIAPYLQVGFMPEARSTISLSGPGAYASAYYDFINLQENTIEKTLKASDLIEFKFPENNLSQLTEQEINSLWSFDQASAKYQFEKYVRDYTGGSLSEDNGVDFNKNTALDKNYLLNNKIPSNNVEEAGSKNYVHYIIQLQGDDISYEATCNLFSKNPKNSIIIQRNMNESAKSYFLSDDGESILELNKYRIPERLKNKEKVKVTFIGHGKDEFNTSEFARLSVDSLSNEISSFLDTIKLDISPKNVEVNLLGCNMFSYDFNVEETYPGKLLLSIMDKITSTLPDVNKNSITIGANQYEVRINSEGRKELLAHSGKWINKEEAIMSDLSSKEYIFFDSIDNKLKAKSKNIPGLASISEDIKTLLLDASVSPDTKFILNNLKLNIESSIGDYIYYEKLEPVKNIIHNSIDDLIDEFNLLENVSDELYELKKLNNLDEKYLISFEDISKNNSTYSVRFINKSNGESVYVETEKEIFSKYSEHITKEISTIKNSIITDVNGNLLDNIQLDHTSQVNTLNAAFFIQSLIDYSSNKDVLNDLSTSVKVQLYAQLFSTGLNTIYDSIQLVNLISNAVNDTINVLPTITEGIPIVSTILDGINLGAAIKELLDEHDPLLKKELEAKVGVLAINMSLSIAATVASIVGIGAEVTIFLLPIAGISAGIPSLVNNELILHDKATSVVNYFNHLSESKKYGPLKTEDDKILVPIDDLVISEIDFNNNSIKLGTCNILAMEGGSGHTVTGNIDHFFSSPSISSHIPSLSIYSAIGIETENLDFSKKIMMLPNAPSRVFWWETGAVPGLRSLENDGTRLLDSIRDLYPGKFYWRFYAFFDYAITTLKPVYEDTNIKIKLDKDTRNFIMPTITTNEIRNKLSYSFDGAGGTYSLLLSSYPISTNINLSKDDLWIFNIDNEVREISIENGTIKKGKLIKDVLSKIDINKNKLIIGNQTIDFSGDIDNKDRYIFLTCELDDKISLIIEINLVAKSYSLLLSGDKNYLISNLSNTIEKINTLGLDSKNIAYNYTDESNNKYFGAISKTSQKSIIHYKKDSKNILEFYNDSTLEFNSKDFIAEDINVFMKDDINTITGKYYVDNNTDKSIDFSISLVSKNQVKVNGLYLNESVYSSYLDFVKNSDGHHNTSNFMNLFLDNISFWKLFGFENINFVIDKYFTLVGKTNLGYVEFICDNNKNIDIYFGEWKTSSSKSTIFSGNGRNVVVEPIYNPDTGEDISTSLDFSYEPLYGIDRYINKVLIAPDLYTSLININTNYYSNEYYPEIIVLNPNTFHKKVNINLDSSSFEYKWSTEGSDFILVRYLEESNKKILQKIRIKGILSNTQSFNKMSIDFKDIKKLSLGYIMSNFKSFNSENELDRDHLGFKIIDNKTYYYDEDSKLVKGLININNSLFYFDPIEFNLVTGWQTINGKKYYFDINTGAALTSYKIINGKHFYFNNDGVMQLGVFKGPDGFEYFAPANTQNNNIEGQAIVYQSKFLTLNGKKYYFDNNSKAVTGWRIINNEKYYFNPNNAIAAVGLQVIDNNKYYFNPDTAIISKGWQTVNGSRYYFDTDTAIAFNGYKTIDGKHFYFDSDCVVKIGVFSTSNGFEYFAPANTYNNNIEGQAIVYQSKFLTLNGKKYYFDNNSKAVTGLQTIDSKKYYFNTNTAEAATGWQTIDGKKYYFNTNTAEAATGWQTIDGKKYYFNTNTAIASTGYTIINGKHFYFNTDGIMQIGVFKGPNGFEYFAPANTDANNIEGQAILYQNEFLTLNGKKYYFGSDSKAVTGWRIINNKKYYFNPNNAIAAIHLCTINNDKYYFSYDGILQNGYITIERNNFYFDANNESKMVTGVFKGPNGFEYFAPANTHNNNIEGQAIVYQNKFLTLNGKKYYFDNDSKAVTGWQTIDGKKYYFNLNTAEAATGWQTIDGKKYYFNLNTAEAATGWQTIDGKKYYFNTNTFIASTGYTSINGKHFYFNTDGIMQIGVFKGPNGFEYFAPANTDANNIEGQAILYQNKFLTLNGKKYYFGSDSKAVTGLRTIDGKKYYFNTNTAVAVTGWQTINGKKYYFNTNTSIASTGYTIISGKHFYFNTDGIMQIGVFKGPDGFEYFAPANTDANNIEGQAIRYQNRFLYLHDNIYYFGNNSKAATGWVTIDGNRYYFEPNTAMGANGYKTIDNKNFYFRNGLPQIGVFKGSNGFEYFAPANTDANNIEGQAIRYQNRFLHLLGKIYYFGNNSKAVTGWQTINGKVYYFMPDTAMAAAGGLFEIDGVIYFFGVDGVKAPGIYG

[3] = target: full-length TcdB (TcdB1-2366), VPI10463 (Clostridioides difficile strain VPI10463, UniProt P18177 1-2366); assay: cell-based or functional assay
Sequence of full-length TcdB (TcdB1-2366), VPI10463 (P18177 whole entry): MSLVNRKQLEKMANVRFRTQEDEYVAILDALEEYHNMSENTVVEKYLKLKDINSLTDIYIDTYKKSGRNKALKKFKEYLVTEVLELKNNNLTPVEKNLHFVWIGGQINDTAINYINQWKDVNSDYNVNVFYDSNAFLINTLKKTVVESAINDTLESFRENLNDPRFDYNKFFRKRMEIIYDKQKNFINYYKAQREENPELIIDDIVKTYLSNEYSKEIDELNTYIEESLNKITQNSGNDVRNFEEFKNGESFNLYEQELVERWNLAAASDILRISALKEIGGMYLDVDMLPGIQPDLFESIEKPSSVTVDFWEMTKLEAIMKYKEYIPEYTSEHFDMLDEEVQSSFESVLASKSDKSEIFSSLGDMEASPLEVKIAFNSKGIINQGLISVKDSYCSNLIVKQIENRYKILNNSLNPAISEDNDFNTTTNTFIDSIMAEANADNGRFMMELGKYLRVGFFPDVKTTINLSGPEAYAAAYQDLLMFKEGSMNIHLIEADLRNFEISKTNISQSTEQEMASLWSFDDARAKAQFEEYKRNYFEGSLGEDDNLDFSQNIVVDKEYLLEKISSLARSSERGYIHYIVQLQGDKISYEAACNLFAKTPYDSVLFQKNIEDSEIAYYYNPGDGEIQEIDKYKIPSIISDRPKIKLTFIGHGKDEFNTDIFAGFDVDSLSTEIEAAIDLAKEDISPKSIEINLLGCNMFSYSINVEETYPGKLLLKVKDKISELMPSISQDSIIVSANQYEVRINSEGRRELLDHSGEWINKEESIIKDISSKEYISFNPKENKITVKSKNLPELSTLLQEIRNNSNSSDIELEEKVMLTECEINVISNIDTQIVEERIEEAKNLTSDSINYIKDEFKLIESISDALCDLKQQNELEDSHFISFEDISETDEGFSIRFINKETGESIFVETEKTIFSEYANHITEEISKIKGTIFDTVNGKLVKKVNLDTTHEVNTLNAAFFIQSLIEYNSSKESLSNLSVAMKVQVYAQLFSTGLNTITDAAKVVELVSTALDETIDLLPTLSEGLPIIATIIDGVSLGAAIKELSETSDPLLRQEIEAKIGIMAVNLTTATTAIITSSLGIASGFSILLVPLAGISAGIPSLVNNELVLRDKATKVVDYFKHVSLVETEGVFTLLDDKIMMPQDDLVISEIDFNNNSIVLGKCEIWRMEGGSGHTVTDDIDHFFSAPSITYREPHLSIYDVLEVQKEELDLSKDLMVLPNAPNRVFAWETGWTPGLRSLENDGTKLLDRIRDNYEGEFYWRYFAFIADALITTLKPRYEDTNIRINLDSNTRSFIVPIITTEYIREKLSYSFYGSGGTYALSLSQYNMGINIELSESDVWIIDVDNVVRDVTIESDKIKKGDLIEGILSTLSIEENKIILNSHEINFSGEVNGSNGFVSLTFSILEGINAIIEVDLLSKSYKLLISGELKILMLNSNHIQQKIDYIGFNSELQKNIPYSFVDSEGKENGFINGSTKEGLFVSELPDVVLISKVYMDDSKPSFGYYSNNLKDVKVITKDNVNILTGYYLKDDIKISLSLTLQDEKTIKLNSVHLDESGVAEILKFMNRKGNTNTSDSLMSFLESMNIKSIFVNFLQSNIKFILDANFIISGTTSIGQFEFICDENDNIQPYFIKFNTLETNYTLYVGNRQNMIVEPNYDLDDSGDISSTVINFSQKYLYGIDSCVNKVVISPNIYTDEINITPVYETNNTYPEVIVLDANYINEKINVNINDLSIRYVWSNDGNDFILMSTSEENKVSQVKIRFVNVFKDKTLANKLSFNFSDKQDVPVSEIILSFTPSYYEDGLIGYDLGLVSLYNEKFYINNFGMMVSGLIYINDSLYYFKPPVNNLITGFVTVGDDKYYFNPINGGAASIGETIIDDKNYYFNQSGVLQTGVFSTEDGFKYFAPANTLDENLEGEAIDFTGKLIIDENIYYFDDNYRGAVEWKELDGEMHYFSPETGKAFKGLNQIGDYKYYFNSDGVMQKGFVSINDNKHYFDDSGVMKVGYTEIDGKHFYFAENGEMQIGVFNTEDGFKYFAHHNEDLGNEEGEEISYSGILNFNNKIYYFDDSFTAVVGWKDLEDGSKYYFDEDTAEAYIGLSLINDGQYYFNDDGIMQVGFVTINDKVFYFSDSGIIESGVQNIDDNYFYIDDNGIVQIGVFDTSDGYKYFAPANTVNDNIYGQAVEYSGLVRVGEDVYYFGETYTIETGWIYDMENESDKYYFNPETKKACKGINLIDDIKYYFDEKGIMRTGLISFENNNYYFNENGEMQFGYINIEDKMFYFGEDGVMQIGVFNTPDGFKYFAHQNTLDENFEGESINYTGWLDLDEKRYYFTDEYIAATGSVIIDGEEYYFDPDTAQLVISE

B1: A1G6 (VHH)
VHH: QVQLQESGGGLVQPGGSLRLSCAASGRAFSSYAMGWFRQTPGKEREFVAVISWSGGSTYYADSVKGRFTISRDNTKNMVYLQMMSLKPEDTAVYYCAADFSQPLLATVPDDYDYWGQGTQVTVSS
- binding result [1]: no binding
- EC50 (nM), TcdA neutralization, Vero cells [2]: 6.4 nM

B2: A1C1 (VHH)
VHH: QVQLQESGGGLVQAGGSLRLSCAASGGTFSSYSVGWFRQAPGLEREFVGMITWRGITYFEDFVKDRFNISRDNAKNTVYLQMNSLKPEDTAVYSCAARDRRAARIQEFDYWGQGTQVTVSS
- EC50, TcdA neutralization, T84 cells [2]: > 10000 nM

B3: A1D1 (VHH)
VHH: QVQLQESGGGLVQAGGSLRLSCAASGRTFSTHTMAWFRQAPGKEREFVTGIRWSDGMTIYADSVKGRFTISRDKATNTMYLEMNTLKPDDTAVYYCGAGPTMYHPTYWGQGTQVTVSS
- binding result [1]: no binding

B4: A2F10 (VHH)
VHH: QVQLQESGGGLVQPGGSLRLSCAASGRSFSSGAMGWFRQAPGKEREFVGVGWSGGLIDYAASVRGRFTITRDKAKNTVYLRMDSLRPEDTAVYYCAINSANSCAGYDCHDKPQVYDYWGQGTQVTVSS
- EC50 (nM), TcdA neutralization, T84 cells [2]: 455 nM

B5: A1C4 (VHH)
VHH: QVQLQESGGGLVQPGGSLRLSCAASGRSFSINTMGWYRQAPGNKRDMVATITTGGNTNYADSVKGRFTISRDNAKNTVYLQMNSLKPEDTAVYYCRTVVVTPYPDEFEYDYWGQGTQVTVSS
- binding result [1]: no binding
- EC50 (nM), TcdA neutralization, T84 cells [2]: 60.3 nM
- EC50 (nM), TcdA neutralization, Vero cells [2]: 2.5 nM

B6: B0A9 (VHH)
VHH: QVQLQESGGGLVQPGGSLRLTCTSSTSINIYPYMGWYRQAPGKQRERVATVNRDGNTNYLDSVKGRFTITRDDAKKTICLQMNNLEPEDTAVYYCNNFGSSSWGQGTQVTVSS
- EC50 (nM), TcdB neutralization, Caco-2 cells [3]: 1.3 nM
- EC50 (nM), TcdB neutralization, Vero cells [3]: 12.9 nM

B7: A1H1 (VHH)
VHH: QVQLQESGGGLVQAGGSLRLSCAASGGTFSKTSVGWFRQAPGLEREFVALITWSGNTYFVDSVRERFAISRDNAENTVYLQMNSLEPEDTAVYYCAARERTAARIQEFDYWGQGTQVTVSS
- EC50, TcdA neutralization, T84 cells [2]: > 10000 nM

B8: B0C10 (VHH)
VHH: QVQLQESGGGLVQPGGSLRLSCTASGFTRKHYTIGWFRQAPGKEREGVSCITTPDNSTYYKDSVKGRFTISRDNAKNTVYLQMNNVKPEDTAVYYCGASALGGSSCAQSSSVLHRLFQWGQGTQVTVSS
- EC50 (nM), TcdB neutralization, Caco-2 cells [3]: < 1 nM
- EC50 (nM), TcdB neutralization, Vero cells [3]: 1.3 nM

B9: A2A6 (VHH)
VHH: QVQLQESGGGLVQAGGSLRLSCADSGRTFSRYEMGWSRQAPGKEREFVAVINRLGRSTYYADSVKGRFTISRDNAKNTVYLQMNSLKPEDTAVYYCAAGVRLNLPQIPDVIDFWGQGTQVTVSS
- binding result [1]: no binding
- EC50 (nM), TcdA neutralization, T84 cells [2]: 91 nM
- EC50 (nM), TcdA neutralization, Vero cells [2]: 1 nM

B10: A2B5 (VHH)
VHH: QVQLQESGGGLVQAGGSLRLSCTPSERTFSAYTMAWYRQPPGKEREFAAGIKWSGSGGITLYADSVKGRFTISGDNAKSTVYLEMNSLKPEDTAVYYCTAGPTVYNPHYWGQGTQVTVSS
- binding result [1]: no binding
- EC50 (nM), TcdA neutralization, Vero cells [2]: 11.1 nM

B11: A1G4 (VHH)
VHH: QVQLQESGGGLVQAGGSLRLSCAVSGRTLNSYAMGWFRQALGKEREFVAGISRAGGMTRYTDSVKGRFTISRDDAKNTVYLQMNSLKPDDTAVYSCAASFALVDSAGAYDYWGQGTQVTVSS
- binding result [1]: no binding
- EC50 (nM), TcdA neutralization, T84 cells [2]: 844 nM
- EC50 (nM), TcdA neutralization, Vero cells [2]: 8.5 nM

B12: A2G5 (VHH)
VHH: B11 VHH with N30S, A54G, F100Y, V103I, S105M, A106S, G107S
- binding result [1]: no binding
- EC50, TcdA neutralization, T84 cells [2]: > 10000 nM

B13: A2H9 (VHH)
VHH: QVQLQESGGGLVQAGGSLRLSCAASGRASSTYVMAWFRQAPGKEREFVAADTWGGAGTYYAPSVKGRFTISRDNAKNMLYLQMNSLKPEDTAAYYCAAGQGRSVTLFQPSTYDYWGQGTQVTVSS
- binding result [1]: no binding
- EC50 (nM), TcdA neutralization, T84 cells [2]: 105 nM
- EC50 (nM), TcdA neutralization, Vero cells [2]: 8.7 nM

B14: B0D11 (VHH)
VHH: QVQLQESGGGLAQPGGSLRLSCAASGFTFSHAVMSWFRQAPGKERELVAGWRSAGGITNYADSVKGRFTISGDNAKDVVYLQMNSLKPEDTAVYYCKAFVVGSAYWGQGTQVTVSS
- EC50 (nM), TcdB neutralization, Caco-2 cells [3]: 111 nM
- EC50 (nM), TcdB neutralization, Vero cells [3]: 176 nM

B15: A2A8 (VHH)
VHH: QVQLQESGGGLVQAGDSLRLSCTASGGTFSSYSIGWFRQAPGLEREFVALITWRNNTYLGDSVRERFAISRDNAKNTVYLQMNSLKPEDTAVYSCAARERRVARIQEFDYWGQGTQVTVSS
- EC50, TcdA neutralization, T84 cells [2]: > 10000 nM

B16: B0E2 (VHH)
VHH: QVQLQESGGGLVLPGGSLRLSCAASGTVFKIYVMGWYRQAPGKQRELVATISNGGTPNYADSVKGRFTISGDRAKNTVFLQMSSLNVEDTAVYYCNRRQLEGRQSEDYWGQGTQVTVSS
- EC50 (nM), TcdB neutralization, Caco-2 cells [3]: < 1 nM
- EC50 (nM), TcdB neutralization, Vero cells [3]: 28 nM

B17: A1H5 (VHH)
VHH: QVQLQESGGGLVQPGGSLRLSCAASGSIFSINAMGWYRQAPGKQRELVASITSGGSTNYADSVKGRFTISRDGAKNTVYLQMNSLKPEDTAVYYCHVPWTDDFGWAVKDYWGQGTQVTVSS
- binding result [1]: no binding
- EC50 (nM), TcdA neutralization, Vero cells [2]: 15.7 nM

B18: A2H4 (VHH)
VHH: B17 VHH with S50K, S56T, H96N, V97L, D101S, F103L
- binding result [1]: no binding
- EC50 (nM), TcdA neutralization, T84 cells [2]: 838 nM
- EC50 (nM), TcdA neutralization, Vero cells [2]: 40.9 nM

B19: B2C11 (VHH)
VHH: QVQLQESGGGLVHVGESLTLSCVAPGSIFGVNTMAWYRQAPGKQRELVAAISPGGYTNYAEFVKGRFGISRDKAKNTVYLQMNDLKPEDTAVYYCNYRSGTSRPNTNWGQGTQVTVSS
- EC50 (nM), TcdB neutralization, Vero cells [3]: < 1 nM

B20: A1C11 (VHH)
VHH: QVQLQESGGGLVQAGDSLRLSCAASGRTFSRYAMGWFRQAPGKEREFVAAISWSGGTTYYADSVKGRFTISRDNAKNTVYLQMNSLKPEDTAVYYCAAGLFRGDLTRFKLDEYDYRGQGTQVTVSS
- binding result [1]: no binding
- EC50 (nM), TcdA neutralization, T84 cells [2]: 10.4 nM
- EC50 (nM), TcdA neutralization, Vero cells [2]: < 1 nM

B21: A1D8 (VHH)
VHH: B20 VHH with D16G, A23V, R27G, M34L, W53Y, G56A, Y80F, L100F, R107K
- binding result [1]: no binding
- EC50 (nM), TcdA neutralization, T84 cells [2]: 2.1 nM
- EC50 (nM), TcdA neutralization, Vero cells [2]: < 1 nM

B22: A2F12 (VHH)
VHH: B20 VHH with D16G, G56D, Y60D, I70V, R107K, K109E
- binding result [1]: no binding
- EC50 (nM), TcdA neutralization, T84 cells [2]: 1.1 nM
- EC50 (nM), TcdA neutralization, Vero cells [2]: < 1 nM

B23: A2C2 (VHH)
VHH: B20 VHH with A14T, D16G, A23T, P41S, W53Y, A61S, N77S, Y80S, K109T
- binding result [1]: no binding
- EC50 (nM), TcdA neutralization, T84 cells [2]: 2.4 nM
- EC50 (nM), TcdA neutralization, Vero cells [2]: < 1 nM

B24: B1E7 (VHH)
VHH: QVQLQESGGGLVQPGGSLRLSCAASGSLRSGYVMSWHRQAPGKQRELVASITTGDITQYGASVKGRFTISRDETKNMGWLQMNSLLPEDTAVYYCKITELPTVSVYWGQGTQVTVSS
- EC50 (nM), TcdB neutralization, Vero cells [3]: 10 nM

B25: B0B11 (VHH)
VHH: QVQLQESGGGLVQPGGSLRLSCATSGFYFPNYAMSWHRQAPGQERELVARITSAGGSTDYADSVKGRFTISRDNSKNTVYLQMNGLISEDTAVYYCNADPSYGTRYWGQGTQVTVSS
- EC50 (nM), TcdB neutralization, Caco-2 cells [3]: 161 nM
- EC50 (nM), TcdB neutralization, Vero cells [3]: 350 nM

B26: B1C10 (VHH)
VHH: QVQLQESGGGLVQPGGSLRLSCLASGLSLSTDVMSWFRQAPGKERELVAGIRSAGWITNYADSVKGRFTISVDSAKNTVYLQMNSLKPEDTAVYYCKVLRLPDGLAFWGQGTQVTVSS
- EC50 (nM), TcdB neutralization, Vero cells [3]: 2.2 nM

B27: A2B10 (VHH)
VHH: QVQLQESGGGTVQPGGSLRLSCAASGRDFSSGAMGWFRQTPGNEREFVGVGWSGGLIDYSDSVKGRFTITRDKLKNEVYLRMDRLKPEDTAVYFCAVNSANSCAGYDCHDKPQTYNYWGQGTQVTVSS
- EC50 (nM), TcdA neutralization, T84 cells [2]: 678 nM

B28: B0B7 (VHH)
VHH: QVQLQESGGGSVQPGGSLRLSCAASGSIYGMMMMAWYRQRTGEQRELVANFTRDGSTNYVDSVKGRFTISRDNDKKMVYLQMKDLKPEDTAVYYCNIQRYWGKGTAVTVSS
- EC50 (nM), TcdB neutralization, Vero cells [3]: < 1 nM

B29: B2C5 (VHH)
VHH: QVQLQESGGGLVQPGGSLRLSCAASGLTSGTYVMSWFRQAPGKEREFVAAIRDAGGIRNYADSVKGRFTISRDAAKNMIFLQMNSLKPEDTAVYYCKFLRLPESLAYWGQGTQVTVSS
- EC50 (nM), TcdB neutralization, Vero cells [3]: < 1 nM
